Test results from US20100041597A1, “PEPTIDES TARGETED TO PROTEIN KINASE C ISOFORMS AND USES THEREOF” (priority 2005, published 2010).
Entries after “also recorded” stand apart in the source; their conditions may differ.

Molecular target: PKC-δ (Homo sapiens, UniProt Q05655)
Assay: ELISA-based competitive binding assay with purified PKC isoform
Parameters: key to Affinity for PKC isoform δ: —: no detectable affinity; Low to very low affinity at 10X or 20X or both PRE concentrations in at least one cell line in the cell extract assay; Low affinity in purified isoform assay.; Moderate affinity at 10X or 20X or both PRE concentrations in at least one cell line in the cell extract assay.; High affinity at 10X or 20X or both PRE concentrations in at least one cell line in the cell extract assay; High affinity in purified isoform assay
Details: for inhibition at 50 µM / inhibition at 100 µM / inhibition at 200 µM / calculated binding capacity (100-% n) after subtraction of the DMSO apparent binding capacity: purified PKC-δ, may be overestimated (longer colour development); for inhibition at 50 µM / inhibition at 100 µM / inhibition at 200 µM: read-out: calculated binding capacity (100-% n) after subtraction of the DMSO apparent binding capacity; for Affinity for PKC isoform δ: Purified isoform, Table 20; for targeting of / affinity for PKC-δ: purified isoform, Tables 14-19
Experimental: Peptides PRE 1, 2, 3, 4, 5, 6, 7, 8, 9, 10, 11, 12 and 13 (see Table 3) were tested for their ability to interfere with binding of PKC isoform-specific antibodies to their target PKC isoforms using a competitive binding assay and purified PKC isoforms.
Procedure: Competitive binding was assessed using a 96 well plate ELISA-based assay as described below.
Greiner 96 well ELISA plates were coated with the appropriate PKC isoform diluted in PBSN (PBS with Calcium/Magnesium+0.05% Sodium azide w/w). 50 μL/well at 250 ng/mL was used. Control wells contained PBSN only. Plates were incubated overnight at 4° C.
The plates were washed 3 times with 200 μL of dH2O per well, then 100 μL of blocking solution was added per well and the plate incubated for 1 h at 37° C. The washing steps with dH2O were repeated and 50 μL of the appropriate PRE solution (PRE stock solution [20 mM in DMSO] diluted in PBSN) was added and the plate incubated for 1 h at room temperature.
After incubation, 5 μL of 1.1:400 anti-PKC (isoform specific antibody) was added per well (to provide a final concentration of 1:4000). For PKC-epsilon, 1.1:800 dilution was used and for PKC-zeta a 1.1:100 dilution was used due to high and low binding affinity, respectively. The plates were then incubated 1 h at room temperature, followed by washing with dH2O as described above.
50 μL of 1:1000 dilution of Alkaline Phosphatase (AP) conjugated antibody (anti-rabbit for all except zeta, which was anti-goat) was then added and the plate incubated for 1 h at room temperature. Washing with dH2O was then repeated. Finally, 100 μL of pNPP solution in pNPP buffer (2 mM MgCl2, 100 mM Sodium bicarbonate in water, pH 9.8) was added to all wells and incubated for 8 minutes for α, βI, βII ε, and ζ, or for 15-20 mins for […] (until sufficient coloration is observed). The reaction was stopped by addition of Stop solution (2N NaOH) and the absorbance at 405 nm was read on a Galaxy Plate reader.
Controls were PKC without PRE; blank controls, and controls containing the final concentrations of DMSO used for solubilizing the PREs. The non-specific binding capacity related to DMSO was also measured.
The antibodies used were as follows: anti-PKC α (Cat. No. SC-208); anti-PKC βI (Cat. No. SC-209); anti-PKC βII (Cat. No. SC-210); anti-PKC δ (Cat. No. SC-213); anti-PKC ε (Cat. No. SC-214); anti-PKC ζ (Cat. No. SC-216-G) (all from Santa Cruz Biotechnology, Inc.). The AP-conjugated antibodies were obtained from Jackson Immuno Research Laboratories (West Grove, Pa.).
Calculations: The OD values measured at 405 nm represent the free PKC coated per well.
OD405 PKC alone−Blank OD405 of each sample=OD405 coated isoform
(OD405 of sample X/OD405 coated isoform)×100=% n that represents the percentage of X binding compared to control.
100-% n measures the relative binding capacity of X towards the tested isoform.
The apparent binding capacity of the DMSO samples was then subtracted from X binding capacity.
All measurements were made in triplicate and the values in the table represent the averaged calculated binding capacity values after subtraction of the DMSO apparent binding capacity (averaged from 12 values, respectively 10.80, 11.20 and 16.40 corresponding to the concentrations of DMSO used to dilute the […] at 200, 100 and 50 μM respectively). The results allow for quantitative comparison of the binding capacity of each PRE towards an individual isoform within each table, but not among isoforms due to differences in sensitivity of the specific antibodies toward the secondary antibody. This applies particularly to PKC-delta. As noted above, the colour development duration was increased 2-3 times and, as a result, the OD405 measurements may be overestimated for this isoform.

Sequence of PKC-δ (Q05655 whole entry, canonical isoform): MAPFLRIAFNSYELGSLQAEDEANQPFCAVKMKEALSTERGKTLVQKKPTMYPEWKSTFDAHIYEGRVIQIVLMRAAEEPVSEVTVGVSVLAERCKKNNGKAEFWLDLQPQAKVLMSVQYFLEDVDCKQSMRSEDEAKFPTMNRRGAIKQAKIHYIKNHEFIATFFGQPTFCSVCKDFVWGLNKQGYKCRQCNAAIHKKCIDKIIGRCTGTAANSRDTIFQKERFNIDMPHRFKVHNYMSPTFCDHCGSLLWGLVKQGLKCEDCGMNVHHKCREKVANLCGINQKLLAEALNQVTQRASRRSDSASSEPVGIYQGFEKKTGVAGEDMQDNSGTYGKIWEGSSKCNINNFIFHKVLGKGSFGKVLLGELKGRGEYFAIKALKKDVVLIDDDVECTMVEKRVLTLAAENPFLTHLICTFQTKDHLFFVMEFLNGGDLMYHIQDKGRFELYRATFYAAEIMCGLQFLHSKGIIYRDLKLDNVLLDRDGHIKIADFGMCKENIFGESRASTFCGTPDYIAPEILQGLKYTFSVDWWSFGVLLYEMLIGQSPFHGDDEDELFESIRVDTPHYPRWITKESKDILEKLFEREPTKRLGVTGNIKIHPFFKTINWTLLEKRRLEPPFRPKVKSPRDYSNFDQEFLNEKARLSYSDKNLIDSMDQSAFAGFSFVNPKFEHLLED

Substance | Affinity for PKC isoform δ | targeting of / affinity for PKC-δ | also measured
Ac-AKGIQEVKGGDAQNLIGISI-NH2 [PRE 3] | H | targeted most strongly | inhibition at 50 µM (PRE 50 μM): 48.3%; inhibition at 100 µM (PRE 100 μM): 56%; inhibition at 200 µM (PRE 200 μM): 57%
Ac-AKGIQEVKGGKDAQNLIGISI-NH2 [PRE 5] | L |  | inhibition at 50 µM (PRE 50 μM): 0.2%; inhibition at 100 µM (PRE 100 μM): 0%; inhibition at 200 µM (PRE 200 μM): 4.31%
Ac-ISIGILNQADK-NH2 [PRE 10] | — |  | calculated binding capacity (100-% n) after subtraction of the DMSO apparent binding capacity (PRE 200 μM): 9.47
Ac-ISIGILQNADK-NH2 [PRE 7] | — |  | 
Ac-KDANQLIGISI-NH2 [PRE 6] | L |  | 
Ac-KDAQNLI-NH2 [PRE 12] | L |  | 
Ac-KDAQNLIGISI-NH2 [PRE 4, Ac-KDAQNLIGISI-NH2] | H | targeted most strongly; also recorded: showed an affinity for PKC-6 | inhibition at 50 µM (PRE 50 μM): 29.2%; inhibition at 100 µM (PRE 100 μM): 30.7%; inhibition at 200 µM (PRE 200 μM): 17.3%
Ac-RDAQNLI-NH2 [PRE 13] | L |  | 
Ac-RDAQNLIGISI-NH2 [PRE 11] | H | targeted most strongly | 
Ac-isigilgnadk-NH2 [PRE 9] | L |  | calculated binding capacity (100-% n) after subtraction of the DMSO apparent binding capacity (PRE 50 μM): 16.23; calculated binding capacity (100-% n) after subtraction of the DMSO apparent binding capacity (PRE 100 μM): 19.27; calculated binding capacity (100-% n) after subtraction of the DMSO apparent binding capacity (PRE 200 μM): 9.95
ILEDKGGDAQNLIGISI [PRE 8] | — |  | 
RRKKGGKDFVVKR [PRE 1] | H | targeted most strongly | 
